Results on one molecule are retold here after patent publication US20210063414A1, “METHODS FOR PREVENTING AND/OR TREATING BONE LOSS CONDITIONS BY MODULATING IRISIN” (Dana-Farber Cancer Institute, Inc., priority 2018, published 2021).

The target of assay [1] is T1, MLO-Y4 cell surface proteins (Mus musculus, UniProt P41216).
T1 construct: endogenous in cells; host or cells: MLO-Y4
T1 sequence (P41216 1-699): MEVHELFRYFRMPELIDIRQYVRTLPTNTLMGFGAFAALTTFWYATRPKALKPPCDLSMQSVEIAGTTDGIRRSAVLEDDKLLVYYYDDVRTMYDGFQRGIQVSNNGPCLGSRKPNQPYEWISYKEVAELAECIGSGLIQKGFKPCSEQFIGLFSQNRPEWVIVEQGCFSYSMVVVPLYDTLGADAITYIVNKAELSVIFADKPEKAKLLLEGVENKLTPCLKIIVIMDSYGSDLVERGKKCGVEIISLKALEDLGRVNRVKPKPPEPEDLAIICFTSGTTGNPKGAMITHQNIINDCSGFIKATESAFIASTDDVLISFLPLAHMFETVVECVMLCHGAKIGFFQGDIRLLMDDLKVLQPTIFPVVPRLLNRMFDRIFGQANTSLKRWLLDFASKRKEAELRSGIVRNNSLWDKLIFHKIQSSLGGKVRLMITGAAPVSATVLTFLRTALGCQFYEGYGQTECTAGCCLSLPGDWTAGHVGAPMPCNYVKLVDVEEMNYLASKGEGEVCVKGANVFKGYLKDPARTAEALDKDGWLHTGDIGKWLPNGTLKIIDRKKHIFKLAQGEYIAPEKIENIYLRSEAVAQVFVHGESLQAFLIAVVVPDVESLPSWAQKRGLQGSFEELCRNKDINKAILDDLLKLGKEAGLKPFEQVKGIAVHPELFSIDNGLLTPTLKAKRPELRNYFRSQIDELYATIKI
Nature of the assay: Crosslinking/co-immunoprecipitation/mass spectrometry (TMT quantitative proteomics) to identify irisin receptors. The format is binding. The settings on record: co-precipitated protein Acsl1 (ACSL1_MOUSE). An outline of the steps: (§1)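 Mouse MLO-Y4 cells were switched to serum-free FreeStyle medium for 4 h, chilled, then exposed to 10 nM His-tagged irisin (or adipsin as control) for 20 min. Cells were crosslinked with 1.5 mM DTSSP (30 min, ice), and bound proteins were pulled down on Ni-NTA and eluted with 250 mM imidazole. Eluates were separated by SDS-PAGE, trypsin-digested in gel, TMT 6-plex labelled and quantified by MS3-based LC-MS/MS on an Orbitrap Fusion Lumos.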

In assay [2] the target is T2, MLO-Y4 cell surface proteins (Mus musculus, UniProt Q8BJQ9).
T2 construct: endogenous in cells; host or cells: MLO-Y4
T2 sequence (Q8BJQ9 1-530): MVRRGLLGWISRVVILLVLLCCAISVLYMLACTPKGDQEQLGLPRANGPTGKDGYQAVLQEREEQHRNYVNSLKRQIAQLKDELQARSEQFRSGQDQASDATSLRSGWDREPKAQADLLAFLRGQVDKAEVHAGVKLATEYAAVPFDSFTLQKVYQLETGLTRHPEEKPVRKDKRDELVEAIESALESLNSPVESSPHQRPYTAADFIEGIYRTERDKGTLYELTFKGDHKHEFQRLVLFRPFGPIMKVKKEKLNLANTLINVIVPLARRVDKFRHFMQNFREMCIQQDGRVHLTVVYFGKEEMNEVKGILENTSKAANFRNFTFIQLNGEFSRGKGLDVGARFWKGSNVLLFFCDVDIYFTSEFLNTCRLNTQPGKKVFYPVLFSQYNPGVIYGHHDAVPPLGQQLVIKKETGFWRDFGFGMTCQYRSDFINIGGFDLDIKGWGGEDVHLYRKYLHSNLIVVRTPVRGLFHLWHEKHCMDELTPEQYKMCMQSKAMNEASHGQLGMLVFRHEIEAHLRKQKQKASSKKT
The description is as above. Type of assay: binding. The settings on record: co-precipitated protein Csgalnact1 (CGAT1_MOUSE). The gist of the method: as §1

B1: irisin: secreted cleaved form of FNDC5; recombinant human/mouse irisin with C-terminal his tag produced in HEK293 cells (protein)
chain: DSPSAPVNVTVRHLKANSAVVSWDVLEDEVVIGFAISQQKKDVRMLRFIQEVNTTTRSCALWDLEEDTEYIVHVQAISIQGQSPASEPVLFKTPREAEKMASKNKDEVTMKE
modifications: left off: small tags and cut ends
notes: secreted cleaved form of FNDC5; recombinant human/mouse irisin with C-terminal his tag produced in HEK293 cells
Consider B1, for which, in assay [1], the TMT signal-to-noise ratio is on record as 192.15 and the “irisin/adipsin TMT signal-to-noise ratio” value stood at 0.532. Besides, in assay [2], the TMT signal-to-noise ratio worked out at 1300.88 and the “irisin/adipsin TMT signal-to-noise ratio” value amounted to 0.536.
